# Biological target: insulin receptor (IR-B), P06213
# Assay: cell-based or functional assay
binder,measurement,value
GLP-1/insulin fusion GLP-DP8 (ligand) HAEGTFTSDVSSYLEEQAAREFIAWLVRGRGGPEHLCGAHLVDALYLVCGDRGFYFNDRGAGSSSRRGIVDECCHRSCDLRRLENYCN,potency (activity at the insulin subtype B receptor),9.9

# — patent US20170281788A1
